# Results from article PMC9239176, “Involvement of the DNA Phosphorothioation System in TorR Binding and Anaerobic TMAO Respiration in Salmonella enterica”.
# T1: TorR CTD (Salmonella enterica serovar Cerro 87, UniProt Q8ZKZ5 127-230)
# T1 sequence: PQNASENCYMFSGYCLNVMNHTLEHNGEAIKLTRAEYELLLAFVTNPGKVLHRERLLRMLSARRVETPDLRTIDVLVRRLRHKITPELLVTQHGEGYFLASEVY
# B1: tor box1, PT (dsDNA)
# DNA 1: CCTGCGCGCGGTCTCTTTCTGTTCATATCT
# DNA 2: AGATATGAACAGAAAGAGACCGCGCGCAGG
# modifications: phosphorothioate GpsTTC/GpsAAC
# Legend:
# [1] = tested on: DndF (Salmonella enterica serovar Cerro 87); assay: pull-down LC-MS/MS; conditions: EMSA: 50 nM DNA, 20 mM Tris-HCl pH 8.0, 50 mM KCl, 10 mM MgCl2, 5 mM EDTA, 10 mM DTT, 5% glycerol, 28 C 30 min, gel at 4 C, pull-down: cell lysate, 4 C 4 h
# [2] = tested on: DndG (Salmonella enterica serovar Cerro 87); assay: pull-down LC-MS/MS; conditions: EMSA: 50 nM DNA, 20 mM Tris-HCl pH 8.0, 50 mM KCl, 10 mM MgCl2, 5 mM EDTA, 10 mM DTT, 5% glycerol, 28 C 30 min, gel at 4 C, pull-down: cell lysate, 4 C 4 h
# [3] = tested on: Biotin carboxyl carrier protein of acetyl-CoA carboxylase (Salmonella enterica serovar Cerro 87); assay: pull-down LC-MS/MS; conditions: EMSA: 50 nM DNA, 20 mM Tris-HCl pH 8.0, 50 mM KCl, 10 mM MgCl2, 5 mM EDTA, 10 mM DTT, 5% glycerol, 28 C 30 min, gel at 4 C, pull-down: cell lysate, 4 C 4 h
# TorR CTD = target: T1, TorR CTD; assay: EMSA; EMSA: 50 nM DNA, 20 mM Tris-HCl pH 8.0, 50 mM KCl, 10 mM MgCl2, 5 mM EDTA, 10 mM DTT, 5% glycerol, 28 C 30 min, gel at 4 C; pull-down: cell lysate, 4 C 4 h; conditions: protein: recombinant; tags: His (pET28a, Ni-NTA)
# [4] = phosphorothioate: strand 1 between G13 and A14, strand 2 between G15 and T16
molecule,measurement,setting,value
GGCCCACTACGTGAACCATCACCCTAATCA (double strand) [B12],binding signal (normalized spectral count),[1]; [4],20.2
same,binding signal (normalized spectral count),[2]; [4],30.9
same,binding signal (normalized spectral count),[3]; [4],1.41
GGCCCACTACGTGAACCATCACCCTAATCA (double strand) [B34],binding signal (B34/B12 ratio),[1],0.43
same,binding signal (B34/B12 ratio),[2],0.32
same,binding signal (B34/B12 ratio),[3],2.78
B1,binding result,TorR CTD,binds
